Target: HuROR2-mFc
Experiment: ELISA

| EC50 (pH 6.0, 1.26 g/L sodium bicarbonate, 0.09 g/L L-lactic acid) | EC50 (pH 7.4, 1.26 g/L sodium bicarbonate, 0.09 g/L L-lactic acid) | EC50 (pH 6.0, 2.5 g/L sodium bicarbonate) | EC50 (pH 7.4, 2.5 g/L sodium bicarbonate) | Substance |
| --- | --- | --- | --- | --- |
| 0.0119 µg/mL | no meaningful EC50 could be calculated | – | – | BA302 |
| – | – | 0.0563 µg/mL | no meaningful EC50 could be calculated | BA3021 |
